From patent US20240309116A1 (ZHEJIANG SHIMAI PHARMACEUTICAL, published 2024)

Columns and labels:
[1] = target: T1, recombinant human ROR1 (full-length extracellular domain) (human, UniProt Q01973 30-406); test: ELISA, ROR1 coated on the plate, Fab detected with HRP anti-FLAG antibody
T1 construct: extracellular domain; Bought protein; also called human ROR1 protein; full extracellular domain
Protocol: The hexahistidine-tagged Fabs 2H3 and 3A3 were expressed in E. coli strain HB2151 and purified from the soluble fraction of periplasm by using the Ni-NTA resin. Then ELISA was performed by using standard protocols to measure binding affinity to recombinant human ROR1 (full-length extracellular domain). Briefly, the recombinant human ROR1 (ACROBiosystems) was coated on Corning EIA/RIA high-binding 96-well plates (Corning Inc.) at 50 ng per well overnight at 4° C. and blocked with 3% nonfat milk in PBS (pH7.4). Fivefold serially diluted antibodies were added and incubated at room temperature for 2 h. The plates were washed with PBS containing 0.05% Tween 20. Bound antibodies were detected by HRP-conjugated anti-FLAG tag antibody (Sino Biological). The assay was developed at room temperature with TMB substrate (Solarbio) and OD value was measured at 450 nm with a microplate reader.

[2] = target: T1, recombinant human ROR1 (full-length …); test: ELISA, antigen coated on the plate, biotinylated antibody detected with HRP streptavidin
Protocol: (§1) ELISA was performed according to standard protocols, to determine binding affinity of anti-ROR1 mAB 2H3 and 3A3 to full extracellular domain and individual extracellular Ig-like domain, frizzled domain, and kringle domain of human ROR1. Briefly, recombinant human ROR1 (AcroBiosystems) were coated on Corning EIA/RIA high-binding 96-well plates (Corning Inc.) at 50 ng per well overnight at 4° C. and blocked with 3% nonfat milk in PBS (pH7.4). Fivefold serially diluted biotinylated antibodies were added and incubated at room temperature for 2 h. The plates were washed with PBS containing 0.05% Tween 20. Bound antibodies were detected by HRP-conjugated streptavidin (Sino Biological). The assay was developed at room temperature with TMB substrate (Solarbio) and monitored at 450 nm with a microplate reader. The half-maximal binding (EC₅₀) was calculated by fitting the data to the Langmuir adsorption isotherm.

[3] = target: T2, human/Cynomolgus/Rhesus macaque ROR1 (308-395, Kringle domain) protein (human/Cynomolgus/Rhesus macaque, UniProt Q01973 308-395); test: as above
T2 construct: range 308-395; Bought protein; also called kringle domain of ROR1
T2 sequence (Q01973 308-395 limits assumed, form in doubt): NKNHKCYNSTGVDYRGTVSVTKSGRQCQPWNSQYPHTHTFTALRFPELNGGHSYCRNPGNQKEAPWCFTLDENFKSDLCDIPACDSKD
Protocol: as §1

[4] = target: T3, human ROR1 (39-151, Ig-like domain) protein (human, UniProt Q01973 39-151); test: as above
T3 construct: range 39-151; Bought protein; also called Ig-like domain of ROR1
T3 sequence (Q01973 39-151 limits assumed, form in doubt): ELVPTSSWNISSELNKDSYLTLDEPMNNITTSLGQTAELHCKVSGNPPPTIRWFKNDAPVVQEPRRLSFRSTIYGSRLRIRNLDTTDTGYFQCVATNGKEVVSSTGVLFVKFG
Protocol: as §1

T1 sequence (Q01973 30-406): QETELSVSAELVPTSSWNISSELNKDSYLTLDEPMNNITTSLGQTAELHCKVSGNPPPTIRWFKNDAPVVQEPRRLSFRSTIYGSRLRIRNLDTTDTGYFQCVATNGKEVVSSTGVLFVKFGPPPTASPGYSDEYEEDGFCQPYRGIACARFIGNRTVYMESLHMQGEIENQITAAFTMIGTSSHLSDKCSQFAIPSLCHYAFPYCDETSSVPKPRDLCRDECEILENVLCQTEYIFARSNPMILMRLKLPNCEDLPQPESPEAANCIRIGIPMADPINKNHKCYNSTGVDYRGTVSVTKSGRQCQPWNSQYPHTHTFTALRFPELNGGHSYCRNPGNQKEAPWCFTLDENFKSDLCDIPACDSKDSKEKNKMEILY

B1: anti-ROR1 2H3 Fab (Fab, V domains shown)
VH: QVQLVQSGAEVKKTGSSVKVSCKASGYTFTYRYLHWVRQAPGQALEWMGWITPFNGNTNYAQKFQDRVTITRDRSMSTAYMELSSLRSEDTAMYYCARSGPRGDYVLDYWGQGTLVTVSS
VL: EIVLTQSPATLSLSPGERATLSCRASQSVSSYLAWYQQKPGQAPRLLIYDASNRATGIPARFSGSGSGTDFTLTISSLEPEDFAVYYCQQRSNWPLTFGGGTKVEIK
notes: Human Fab from a phage library, kappa light chain, hexahistidine-tagged, expressed in E. coli HB2151; also called Fab clone 2H3
B1 showed an EC50 [1] of about 16 nM.

B2: anti-ROR1 3A3 Fab (Fab, V domains shown)
VH: EVQLVESGGGVVQPGRSLRLSCAASGFTFSSYGMHWVRQAPGKGLEWVAVISYDGSNKYYADSVKGRFTISRDNSKNTLYLQMNSLRAEDTAVYYCAKDLDYSLWFDPWGQGTLVTVSS
VL: DVVMTQSPLSLPVTPGEPASISCRSSQSLLQSNGYNYVEWFLQKPGQSPQLLIYLGSYRASGVPDRFSGSGSGTDFTLKISRVEAEDVGVYYCMQGTHWPLFTFGPGTKVDIK
notes: Human Fab from a phage library, kappa light chain, hexahistidine-tagged, expressed in E. coli HB2151; detected with an anti-FLAG antibody; also called Fab clone 3A3
Binder B2 has an EC50 [1] of about 36 nM.

B3: anti-ROR1 monoclonal antibody 2H3 (antibody, V domains shown)
VH: B1 VH
VL: EIVLTQSPATLSLSPGERATLSCRASQSVSSYLAWYQQKPGQAPRLLIYDASNRATGIPARFSGSGSGTDFTLTISSLEPEDFAVYYCQQRSNWPLTFGGGTKVEIKR
notes: Intact human IgG1 kappa (Fd of the Fab fused to human IgG1 Fc), about 150 kDa non-reduced; also called 2H3 mAb; 2H3 Mab
Work on B3 yielded an EC50 [2] of 0.2 nM and an EC50 [3] of 1.2 nM.

B4: anti-ROR1 monoclonal antibody 3A3 (antibody, V domains shown)
VH: B2 VH
VL: DVVMTQSPLSLPVTPGEPASISCRSSQSLLQSNGYNYVEWFLQKPGQSPQLLIYLGSYRASGVPDRFSGSGSGTDFTLKISRVEAEDVGVYYCMQGTHWPLFTFGPGTKVDIKR
notes: Intact human IgG1 kappa (Fd of the Fab fused to human IgG1 Fc), about 150 kDa non-reduced; also called 3A3 mAb; 3A3 Mab
Binder B4 has an EC50 [4] of 3.1 nM and an EC50 [2] of 0.18 nM.
